Among the data in patent US20230312753A1 (IMMUNORIZON, published 2023) are EC50 values, retold here.

In test [1] the target is T1, h5T4-His (recombinant human 5T4) (human, UniProt Q13641 32-355, limits assumed).
T1 construct: Bought protein; also called recombinant 5T4
T1 sequence (looked up): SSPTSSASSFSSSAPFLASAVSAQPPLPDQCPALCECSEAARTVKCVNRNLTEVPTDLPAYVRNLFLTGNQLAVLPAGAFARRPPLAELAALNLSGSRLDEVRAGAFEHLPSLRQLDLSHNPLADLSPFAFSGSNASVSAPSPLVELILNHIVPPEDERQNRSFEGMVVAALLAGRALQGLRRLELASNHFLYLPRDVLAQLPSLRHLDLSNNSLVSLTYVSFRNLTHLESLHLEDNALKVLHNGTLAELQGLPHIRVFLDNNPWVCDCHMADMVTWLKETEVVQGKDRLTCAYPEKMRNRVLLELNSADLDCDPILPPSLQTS
Briefly: ELISA on coated h5T4-His (FIG. 43B). On the procedure: (§1) Methods: ELISA binding of Tribody/ProTribody antibody constructs to antigens: Dilute target protein (hCD3epsilon-His (cat # 10977-H08S, supplier Sino Biological); h5T4-His (cat# 19845-H08H, supplier Sino Biological); NKG2A-CD94-ECD-hFc, Lot:20200724002, provided by CP; or NKG2D-ECD-hFc, Lot: 20200413002, provided by CP) into PBS with final concentration of 0.01 µg/mL for hCD3epsilon-His, 0.3 µg/mL for h5T4-His, 1 µg/mL for NKG2A-CD94-ECD-hFc and 0.7 µg/mL for hNKG2D-ECD-hFc respectively and coat 100 µL/well on ELISA plate (cat: 9018, supplier Corning) respectively. Incubate O/N, 4° C. The plates were blocked with 250 µL 1% BSA in PBST for 1 hr at 37° C.Wash 4 times with PBST. All the washes are done using Biotek (Elx 405). All the Tribody set antibodies were diluted to 400 nM and make 4-fold serially dilutions (12 points, including 0 point). Add 100 µL/well diluted antibody constructs solution to plate, incubate for 1 hr at 37° C.Wash 4 times with PBST. Add 100 µL/well anti-human kappa light chain-HRP (1:10000), incubate for 0.5 hr at 37° C. Wash 4 times with PBST. 100 µL/well of TMB substrate was added and incubated at room temperature for 5 min. 100 µL/well of 1N HCl to terminate reaction. Plates were read using ELISA plate reader at 450 nm wavelength (instrunet SpectraMax M5e). Data Analysis was performed using Graphpad prism 5 software by using nonlinear regression (curve fit): log (agonist) vs. response, agonist is antibody concentration (nM) and response is OD value.

In another test the target is T2, NKG2A-CD94-ECD-hFc (human, UniProt P26715 94-233; Q13241 32-179, limits assumed).
T2 construct: extracellular domain; Lot 20200724002, 'provided by CP'; the two-chain layout here is only the reading of the name; also called human NKG2A (recombinant); NKG2A antigen; not shown: human Fc (hFc)
The test is described as follows: ELISA on coated NKG2A-CD94-ECD-hFc (FIG. 43D). Here is the method:
as §1
(An ELISA detects its analyte on a solid surface through an enzyme-linked reagent.)

Test [2] deals with T3, NKG2A/CD94 on CHO cells (CHOK1-NKG2A-CD94) (human, UniProt P26715 1-233; Q13241 1-179, limits assumed).
T3 construct: whole, on cells; also called CHO cells over-expressing NKG2A/CD94; CHO cell line over expressing ectopic NKG2A
The test is described as follows: FACS on CHO cells over-expressing ectopic NKG2A (NKG2A/CD94 by the legend) (FIG. 45E). On the procedure:
(§2) Suspension cultured cells was harvested directly, and adherent cell were digested using TrypLE Express Enzyme (cat: 12604-013, supplier Life technologies). Centrifuge at 1000 rpm for 5 min and discard the supernatant. Cells are suspended at a concentration of 2×10⁶/mL in FACS buffer (2% FBS in PBS) and add 100 µL/well of cell suspension to the plate (cat #3799, supplier Corning). Centrifuging the plates at 2000 rpm for 5 min and discard the supernatant. Re-suspend the cells in 100 µL/well of Tribody set antibodies (400 nM start, 4-fold dilution, 8 point including 0 point) and incubate the plate for 60 min at 4° C. Centrifuge the plate at 2000 rpm, 4° C. for 5 min and discard supernatant. Then wash the cells 3 times with 170 µL FACS buffer. Re-suspend the cells at 100 µL/well with secondary antibody (goat anti-human Ig Fab-FITC, Cat # 2085-02, Southern biotech) with 1:400 dilution and incubate the plate for 30 min at 4° C. in dark. Centrifuge the plate at 2000 rpm, 4° C. for 5 min and discard supernatant. […] The fluorescence intensity of the staining was measured using flow cytometer (BD, FACSVerse). The geometric mean fluorescence intensity (GMFI; median fluorescence intensity (MFI)) of set antibodies staining was calculated (BD FACSuite software). Dose-response curves were generated and EC50s for thetrispecific variants binding were calculated using GraphPad Prism software.

In test [3] the target is T4, human CD3 epsilon on cells (Jurkat T cells, endogenous) (human, UniProt P07766 23-207).
T4 construct: whole, on cells; On cells CD3 epsilon stands in the TCR/CD3 complex; only the epsilon chain is named as target; also called hCD3ε on Jurkat; CD3ε expressing cells
Briefly: FACS on Jurkat T cells, endogenous hCD3ε (FIG. 45A). On the procedure: as §2, with “buffer.” for “buffer. Re-suspend the cells at 100 µL/well with secondary antibody (goat anti-human Ig Fab-FITC, Cat # 2085-02, Southern biotech) with 1:400 dilution and incubate the plate for 30 min at 4° C. in dark. Centrifuge the plate at 2000 rpm, 4° C. for 5 min and discard supernatant.”
Results: The expressed trispecific constructs were analyzed for their binding to cells expressing endogenous CD3ε, 5T4 and NKG2A/NKG2D.

In general, EC50 refers to the concentration that produces a half-maximal response.

T4 sequence (P07766 23-207): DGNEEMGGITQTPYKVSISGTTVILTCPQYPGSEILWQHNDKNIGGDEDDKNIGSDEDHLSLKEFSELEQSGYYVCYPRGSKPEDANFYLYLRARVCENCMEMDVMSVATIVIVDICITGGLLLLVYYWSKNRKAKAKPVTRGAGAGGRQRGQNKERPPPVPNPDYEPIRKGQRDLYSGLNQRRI
T2 sequence (P26715 94-233 limits assumed, chain 1 of 2): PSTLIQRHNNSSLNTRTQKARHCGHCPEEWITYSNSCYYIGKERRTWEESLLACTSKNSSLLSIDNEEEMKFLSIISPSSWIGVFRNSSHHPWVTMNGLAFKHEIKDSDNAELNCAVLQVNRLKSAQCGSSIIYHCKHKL
T2 sequence (Q13241 32-179 limits assumed, chain 2 of 2): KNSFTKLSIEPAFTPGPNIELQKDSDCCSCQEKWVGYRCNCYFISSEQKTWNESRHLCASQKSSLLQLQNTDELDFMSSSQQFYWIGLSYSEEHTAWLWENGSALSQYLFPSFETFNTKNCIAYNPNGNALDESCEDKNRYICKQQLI
T3 sequence (P26715 whole entry, chain 1 of 2): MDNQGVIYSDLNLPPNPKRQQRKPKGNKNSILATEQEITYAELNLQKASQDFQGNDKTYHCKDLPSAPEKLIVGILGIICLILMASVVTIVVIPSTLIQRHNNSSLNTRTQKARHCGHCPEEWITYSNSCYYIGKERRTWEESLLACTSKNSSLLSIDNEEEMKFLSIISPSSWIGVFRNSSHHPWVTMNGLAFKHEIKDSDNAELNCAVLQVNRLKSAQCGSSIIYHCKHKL
T3 sequence (Q13241 whole entry, chain 2 of 2): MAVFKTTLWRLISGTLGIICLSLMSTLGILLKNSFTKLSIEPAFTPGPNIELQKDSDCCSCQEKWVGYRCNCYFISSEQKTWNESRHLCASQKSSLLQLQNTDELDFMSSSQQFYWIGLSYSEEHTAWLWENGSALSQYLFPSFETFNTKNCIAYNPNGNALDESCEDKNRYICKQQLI

B1: IM-1062 Tribody (other)
heavy: GGSGGSEVQLVESGGGLVQPGGSLRLSCAASGFTFNTYAMNWVRQAPGKGLEWVARIRSKYNNYATYYADSVKDRFTISRDDSKNTLYLQMNSLRAEDTAVYYCVRHGNFGNSYVSWFAYWGQGTMVTVSSASTKGPSVFPLAPSSKSTSGGTAALGCLVKDYFPEPVTVSWNSGALTSGVHTFPAVLQSSGLYSLSSVVTVPSSSLGTQTYICNVNHKPSNTKVDKRVEPKSCPPCGGGGSDIQMTQSPSSLSASVGDRVTITCRASENIYSYLAWYQQKPGKAPKLLIYNAKTLAEGVPSRFSGSGSGTDFTLTISSLQPEDFATYYCQHHYGTPRTFGGGTKVEIKGGGGSGGGGSGGGGSGGGGSQVQLVQSGAEVKKPGASVKVSCKASGYTFTSYWMNWVRQAPGQGLEWMGRIDPYDSETHYAQKLQGRVTMTTDTSTSTAYMELRSLRSDDTAVYYCARGGYDFDVGTLYWFFDVWGQGTTVTVSS
light: GGSGGSQAVVTQEPSLTVSPGGTVTLTCRSSTGAVTTSNYANWVQQKPGQAPRGLIGGTNKRAPGTPARFSGSLLGGKAALTLSGVQPEDEAEYYCALWYSNLWVFGGGTKLTVLGQPKAAPSVTLFPPSSEELQANKATLVCLISDFYPGAVTVAWKADSSPVKAGVETTTPSKQSNNKYAASSYLSLTPEQWKSHRSYSCQVTHEGSTVEKTVAPTECPPCSGGGSDIQMTQSPSSLSASVGDRVTITCRASQGISNYLAWFQQKPGKAPKSLIYRANRLQSGVPSRFSGSGSGTDFTLTISSLQPEDVATYYCLQYDDFPWTFGQGTKLEIKGGGGSGGGGSGGGGSGGGGSQVQLVQSGAEVKKPGASVKVSCKASGYTFTSFWMHWVRQAPGQGLEWMGRIDPNRGGTEYNEKAKSRVTMTADKSTSTAYMELSSLRSEDTAVYYCAGGNPYYPMDYWGQGTTVTVSS
notes: Tri-specific antibody (Tribody): anti-CD3 epsilon Fab with an anti-5T4 scFv and an anti-NKG2A scFv, no regulatory domain; also called the Tribody format
Take B1: the EC50 amounted to 0.045 µM in test [1], 0.0057 µM in the test with NKG2A-CD94-ECD-hFc, 0.029 µM in test [2] and 0.0011 µM in test [3].
